Among the data in publication PMC4298681 (The Journal of Cell Biology, 2015) are Kd values, retold here.

This experiment has as its target native Arp2/3 complex purified from Acanthamoeba castellanii (Acanthamoeba castellanii, UniProt P53487 1-388). The experiment in a line: pull-down.

B1: GST-NIK 340–500 (domain or fragment)
chain: SSIVNVPGESTLRRDFLRLQQENKERSEALRRQQLLQEQQLREQEEYKRQLLAERQKRIEQQKEQRRRLEEQQRREREARRQQEREQRRREQEEKRRLEELERRRKEEEERRRAEEEKRRVEREQEYIRRQLEEEQRHLEILQQQLLQEQAMLLHDHRRPH
One may read the Kd as the constant that tells how readily two partners part at equilibrium. The low end stands for higher affinity, the high end for lower affinity. B1: the Kd was roughly 213 nM.
